In general, stoichiometry N refers to a count of units in the complex or per binding partner. Usually Kd stands for a measure of binding affinity in units of concentration.

The results in this text go back to publication PMC11193727, “Neutralizing antibodies reveal cryptic vulnerabilities and interdomain crosstalk in the porcine deltacoronavirus spike protein” (Nature Communications, 2024).

Positions count from the first letter of the chain named. Names and notes keep the numbering of the source.

In experiment [1] the target is PDCoV S ectodomain, prefusion S trimer (porcine deltacoronavirus (PDCoV)). Kind of experiment: cryo-EM structure; PDCoV S ectodomain (10.5 µM protomer) incubated with 22C10 Fab for about 10 min at room temperature.
For experiment [2], the target named is T1, PDCoV S1 (wild type), ELISA antigen (Porcine deltacoronavirus …, UniProt W8Q9Y7).
T1 construct: source: HEK-293T, purified (Protein A Sepharose)
Put plainly: ELISA. The settings on record: both partners purified. In general terms: An ELISA detects its analyte on a solid surface through an enzyme-linked reagent.

For experiment [3], the target named is T2, PDCoV S ectodomain, prefusion S trimer (porcine deltacoronavirus (PDCoV)).
T2 construct: also called prefusion PDCoV S trimer; trimeric S ectodomain; source: HEK-293T, transient (pCAGGS), purified from culture supernatant (streptactin beads); not shown: GCN4 trimerization motif, C-terminal, kept; Strep-tag, C-terminal, kept
T2 chain: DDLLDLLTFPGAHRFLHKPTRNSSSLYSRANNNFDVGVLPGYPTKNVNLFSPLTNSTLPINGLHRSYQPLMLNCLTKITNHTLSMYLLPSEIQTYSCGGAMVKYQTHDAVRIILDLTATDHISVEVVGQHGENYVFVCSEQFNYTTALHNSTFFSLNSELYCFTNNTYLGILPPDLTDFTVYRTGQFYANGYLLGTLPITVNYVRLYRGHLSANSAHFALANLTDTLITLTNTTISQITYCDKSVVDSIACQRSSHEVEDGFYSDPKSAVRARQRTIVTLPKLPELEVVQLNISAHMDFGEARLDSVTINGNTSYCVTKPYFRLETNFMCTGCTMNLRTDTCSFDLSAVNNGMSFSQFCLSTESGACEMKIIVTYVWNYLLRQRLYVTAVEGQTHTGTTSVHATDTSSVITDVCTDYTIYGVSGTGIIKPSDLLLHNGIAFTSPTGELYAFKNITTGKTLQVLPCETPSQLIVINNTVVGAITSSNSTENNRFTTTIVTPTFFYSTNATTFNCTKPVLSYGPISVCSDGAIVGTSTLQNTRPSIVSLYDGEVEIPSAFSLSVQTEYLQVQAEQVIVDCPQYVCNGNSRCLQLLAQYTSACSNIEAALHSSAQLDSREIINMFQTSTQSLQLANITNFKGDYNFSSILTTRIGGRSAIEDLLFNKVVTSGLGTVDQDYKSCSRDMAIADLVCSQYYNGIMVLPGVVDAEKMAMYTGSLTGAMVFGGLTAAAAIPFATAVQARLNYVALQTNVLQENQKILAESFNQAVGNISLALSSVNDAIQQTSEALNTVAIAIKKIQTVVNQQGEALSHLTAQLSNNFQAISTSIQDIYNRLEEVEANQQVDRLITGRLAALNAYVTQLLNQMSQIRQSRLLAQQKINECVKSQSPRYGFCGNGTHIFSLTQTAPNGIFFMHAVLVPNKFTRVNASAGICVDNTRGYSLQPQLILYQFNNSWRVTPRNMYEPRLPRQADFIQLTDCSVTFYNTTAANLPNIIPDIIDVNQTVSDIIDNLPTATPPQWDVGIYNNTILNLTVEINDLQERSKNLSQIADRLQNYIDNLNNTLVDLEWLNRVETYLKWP
Put plainly: BLI; monomeric S1B or untreated trimeric S immobilised on anti-strep mAb-coated protein A biosensor; mAb (50 µg/ml) or APN (100 µg/ml) for 30 min. The following applies: both partners purified. (In general: BLI is a label-free optical method that tracks binding on a fibre tip over time.)

Experiment [4] deals with T3, full length PDCoV S protein expressed on Huh7 cells (porcine deltacoronavirus (PDCoV)).
T3 construct: source: Huh7, transfected (pCAGGS), formaldehyde-fixed cells
T3 chain: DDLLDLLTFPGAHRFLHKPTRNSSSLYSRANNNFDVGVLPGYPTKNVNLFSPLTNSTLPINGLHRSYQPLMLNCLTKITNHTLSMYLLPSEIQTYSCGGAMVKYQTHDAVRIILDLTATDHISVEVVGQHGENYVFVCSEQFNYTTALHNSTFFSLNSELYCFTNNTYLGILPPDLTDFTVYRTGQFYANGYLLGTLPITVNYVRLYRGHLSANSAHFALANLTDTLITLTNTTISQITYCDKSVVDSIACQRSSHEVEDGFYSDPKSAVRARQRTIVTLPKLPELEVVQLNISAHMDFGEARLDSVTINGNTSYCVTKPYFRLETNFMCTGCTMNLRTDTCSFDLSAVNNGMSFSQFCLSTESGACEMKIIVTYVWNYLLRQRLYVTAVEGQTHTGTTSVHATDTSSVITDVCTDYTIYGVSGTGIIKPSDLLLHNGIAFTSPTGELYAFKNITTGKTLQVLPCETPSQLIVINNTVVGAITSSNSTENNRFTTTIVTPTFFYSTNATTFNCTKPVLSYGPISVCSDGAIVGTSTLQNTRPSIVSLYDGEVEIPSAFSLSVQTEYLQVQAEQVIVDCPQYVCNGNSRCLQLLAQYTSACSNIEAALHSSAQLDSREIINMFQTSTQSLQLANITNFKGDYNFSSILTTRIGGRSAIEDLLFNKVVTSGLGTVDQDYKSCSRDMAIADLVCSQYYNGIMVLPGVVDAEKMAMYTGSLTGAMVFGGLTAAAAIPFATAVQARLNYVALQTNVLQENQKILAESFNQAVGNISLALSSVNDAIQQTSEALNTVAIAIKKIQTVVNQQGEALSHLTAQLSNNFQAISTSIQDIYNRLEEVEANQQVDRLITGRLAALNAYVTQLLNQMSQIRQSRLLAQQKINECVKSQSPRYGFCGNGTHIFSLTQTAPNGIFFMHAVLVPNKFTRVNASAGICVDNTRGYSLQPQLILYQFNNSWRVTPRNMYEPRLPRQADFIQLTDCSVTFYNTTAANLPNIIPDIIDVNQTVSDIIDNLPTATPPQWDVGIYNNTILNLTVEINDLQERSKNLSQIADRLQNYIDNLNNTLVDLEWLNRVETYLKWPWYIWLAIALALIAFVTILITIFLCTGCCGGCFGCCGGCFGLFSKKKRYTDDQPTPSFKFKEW
Kind of experiment: immunostaining of cells or tissue. The following applies: one partner purified.

Another experiment concerns the target T4, PDCoV S1A domain (Porcine deltacoronavirus …, UniProt W8Q9Y7).
T4 construct: also called N-terminal domain; NTD; source: HEK-293T, transient (pCAGGS), purified from culture supernatant (streptactin beads); not shown: triple Strep-tag, C-terminal, kept
Kind of experiment: ELISA; purified Strep-tagged S antigens (S trimer, S1B, S1A; 1 µg/ml) coated on Maxisorp plates; human mAbs in fivefold dilutions from 10 µg/ml, RT 1 h; detection with HRP anti-human IgG. The following applies: both partners purified.

Experiment [5] deals with recombinant PDCoV S1 monomer (Porcine deltacoronavirus …, UniProt W8Q9Y7). Put plainly: BLI. The settings on record: both partners purified.
Experiment [6] addresses T5, recombinant PDCoV S1 monomer (porcine deltacoronavirus (PDCoV)).
T5 chain: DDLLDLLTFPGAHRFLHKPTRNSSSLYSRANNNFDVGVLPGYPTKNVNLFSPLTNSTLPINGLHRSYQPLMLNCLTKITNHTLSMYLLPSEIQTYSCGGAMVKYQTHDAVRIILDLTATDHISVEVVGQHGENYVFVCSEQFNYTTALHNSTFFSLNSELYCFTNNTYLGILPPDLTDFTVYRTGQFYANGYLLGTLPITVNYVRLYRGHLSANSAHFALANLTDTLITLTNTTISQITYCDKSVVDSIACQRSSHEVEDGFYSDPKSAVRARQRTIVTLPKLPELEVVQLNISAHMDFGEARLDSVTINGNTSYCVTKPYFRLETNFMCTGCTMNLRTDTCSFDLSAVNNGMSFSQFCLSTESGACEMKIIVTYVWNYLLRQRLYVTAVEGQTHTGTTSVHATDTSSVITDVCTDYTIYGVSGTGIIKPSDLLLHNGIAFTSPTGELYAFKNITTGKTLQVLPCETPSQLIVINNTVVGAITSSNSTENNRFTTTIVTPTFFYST
Put plainly: BLI.

For the molecule “PDCoV S ectodomain, prefusion S trimer (domain or fragment)”, the stoichiometry N in experiment [1] is 3.

B1: 22C10 human IgG1 monoclonal antibody (antibody, V domains shown)
VH: EVRLLESGGGLVQPGGSLRLSCAASGFTFSSYAMSWVRQAPGKGLEWVSIITDSGGGTYFADSVKGRFTISRDNSKNTLYLQMNSLRAEDTALYYCVKVGFCYSSTCPFDYWGQGTLVTVSS
VL: ELVMTQSPATLSVSPGERATLSCRASQSVSSDLAWYQQRPGRAPRLLIYDASTRTTGIPARFSGSGSGTEFTLTISSLQSEDFAVYYCHQYNNWLTFGQGTRLEIK
notes: IgG1, kappa; also called mAb 22C10; source: HEK-293T, transient, purified (Protein A Sepharose)
Regarding B1, the binding result (in experiment [2]; in experiment [3]; in experiment [4]; with PDCoV S1A domain; in experiment [5]) was “binds” in each case. Moreover, in experiment [6], the Kd turned out to be 46.6 nM.

B2: 42H3 human IgG1 monoclonal antibody (antibody, V domains shown)
VH: QVQLVESGGGVVQPGRSLRLSCAASGFTFSSYDMHWVRQAPGKGLEWVAVIWNDGSNEYYADSVKGRFIISRDNSKNTLYLQMNSLRAEDTAVYYCARRGIIMVRGLLGYWGQGTLVTVSS
VL: DIQMTQSPPSLSASVGDRVTITCRASQGISNYLAWHQQKPGKVPKLLIYTASTLQSGVPSRFSGSGSGTDFTLTISSLQPEDVATYYCQKYNSAPFTFGPGTKVDIK
notes: also called S1B neutralizer
Consider B2, for which the binding result in experiment [5] is given as “binds”. Further, the equilibrium dissociation constant (Kd) in experiment [6] was determined as 42 nM.

B3: 46E6 human IgG1 monoclonal antibody (antibody, V domains shown)
VH: B2 VH with D33A, N53R, Y59F, I69T, N77D
VL: B2 VL
notes: IgG1, kappa; also called S1B neutralizer
Turning to B3, the binding result in experiment [5] is “binds”. In experiment [6], the Kd came out at 19.9 nM.
